In paper PMC9143740:

Molecular target: Interleukin 13 receptor subunit alpha 2 (IL-13Rα2) (human (endogenous in patient-derived HGG cell lines)) (UniProt Q14627)
Chain of UniProt Q14627 (Q14627 27-380): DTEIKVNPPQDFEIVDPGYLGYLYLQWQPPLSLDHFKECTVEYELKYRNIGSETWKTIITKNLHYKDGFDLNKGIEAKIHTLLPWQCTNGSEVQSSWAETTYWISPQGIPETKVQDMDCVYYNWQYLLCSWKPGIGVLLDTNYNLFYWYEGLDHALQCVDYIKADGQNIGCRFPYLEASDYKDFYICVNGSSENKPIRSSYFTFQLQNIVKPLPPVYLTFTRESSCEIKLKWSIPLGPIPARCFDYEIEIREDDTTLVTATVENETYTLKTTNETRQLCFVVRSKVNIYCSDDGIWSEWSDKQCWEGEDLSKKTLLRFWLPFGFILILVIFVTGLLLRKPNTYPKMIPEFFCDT

GB-13 (IL13.E13K-PE4E)
IC50 of cell viability (CellTiter-Glo, 72 h), PED17 cells (DMG, IL-13Rα2-high): 0.02 ng/mL
